Literature values as cited in PMC7488126.

Columns and labels:
CD48 (Homo sapiens) = CD48 (Homo sapiens) (UniProt P09326)
CD112 (Homo sapiens) = CD112 (Homo sapiens) (UniProt Q92692)
CD155 (Homo sapiens) = CD155 (Homo sapiens) (UniProt P15151)
B7H6 (Homo sapiens) = B7H6 (Homo sapiens) (UniProt Q68D85)
UniProt Q68D85, sequence (Q68D85 25-262): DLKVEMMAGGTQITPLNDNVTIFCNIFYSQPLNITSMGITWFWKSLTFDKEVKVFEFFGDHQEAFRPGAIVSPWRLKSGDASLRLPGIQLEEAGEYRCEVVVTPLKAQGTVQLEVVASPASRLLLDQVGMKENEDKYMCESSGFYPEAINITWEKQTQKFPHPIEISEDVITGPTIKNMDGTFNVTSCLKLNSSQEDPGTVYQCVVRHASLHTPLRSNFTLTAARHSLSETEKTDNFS

UniProt Q92692, sequence (Q92692 32-360): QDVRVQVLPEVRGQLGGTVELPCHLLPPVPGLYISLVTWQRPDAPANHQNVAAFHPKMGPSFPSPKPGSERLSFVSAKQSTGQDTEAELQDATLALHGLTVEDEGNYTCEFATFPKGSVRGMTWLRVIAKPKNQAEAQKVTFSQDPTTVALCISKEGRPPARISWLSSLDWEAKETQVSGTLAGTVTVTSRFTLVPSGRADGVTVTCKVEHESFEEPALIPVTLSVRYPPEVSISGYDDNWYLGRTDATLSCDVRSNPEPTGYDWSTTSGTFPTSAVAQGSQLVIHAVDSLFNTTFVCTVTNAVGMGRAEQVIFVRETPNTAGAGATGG
UniProt P15151, sequence (P15151 21-343): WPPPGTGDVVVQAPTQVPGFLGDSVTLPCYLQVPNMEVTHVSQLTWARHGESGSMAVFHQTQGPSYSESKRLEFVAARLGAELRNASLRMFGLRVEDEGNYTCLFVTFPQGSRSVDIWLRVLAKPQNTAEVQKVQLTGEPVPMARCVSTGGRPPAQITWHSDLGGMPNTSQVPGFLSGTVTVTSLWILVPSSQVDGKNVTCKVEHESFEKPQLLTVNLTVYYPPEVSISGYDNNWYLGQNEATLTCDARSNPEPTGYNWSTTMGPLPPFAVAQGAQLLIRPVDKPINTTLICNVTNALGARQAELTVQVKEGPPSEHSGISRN
UniProt P09326, sequence (P09326 27-220): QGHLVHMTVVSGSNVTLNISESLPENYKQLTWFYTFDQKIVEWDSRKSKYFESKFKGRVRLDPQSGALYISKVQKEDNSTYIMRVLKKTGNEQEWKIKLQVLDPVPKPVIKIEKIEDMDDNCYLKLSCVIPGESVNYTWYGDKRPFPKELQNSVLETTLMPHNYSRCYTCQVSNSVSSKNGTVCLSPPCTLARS

2B4 ECD (from UniProt Q9BZW8)
Kd (CD48 (Homo sapiens)): 8000 nM

DNAM-1 (from UniProt Q15762)
Kd (CD112 (Homo sapiens)): 310 nM | Kd (CD155 (Homo sapiens)): 230 nM

NKp30 Ig variable domain (from UniProt O14931)
Kd (B7H6 (Homo sapiens)): 1000 nM
